From US20240228660A1 (IP2IPO INNOVATIONS, published 2024)
Positions count from the first letter of the chain named. Where two headings read alike, the source gives them in different places. One block for each binder: values may come before it.

Assays:
[1] = biological target: T1, human native VWF (human, UniProt P04275 764-2813); experiment: SPR, Biacore 8K, antibody captured on Protein A, native VWF as analyte (4.4-50 nM), single-cycle kinetics, 1:1 fit; replicate 1
T1 construct: Multimeric glycoprotein; also called native VWF protein; native VWF (305 kDa)
Description: (§1) The surface plasmon resonance (SPR) experiments were performed using a Biacore 8K (Cytiva) equipped with a research grade Protein A series S sensor chip. […] Flow cell 1 was left blank to serve as a reference surface. […] The complex was allowed to associate and dissociate for 120 seconds and 7200 seconds respectively. The surfaces were regenerated with 30 see injections of 10 mM glycine-HCl pH1.5.
(§2) Data were collected at a rate of 10 Hz. The data were fit to a simple 1:1 interaction model using the global data analysis option available within the Biacore Insight Evaluation software version 3.0.12.15655.

[2] = biological target: T1, human native VWF; experiment: ELISA, native VWF coated at 20 ng/well, semi-log dilution of the mAb from 10 µg/ml, anti-human IgG-HRP/TMB
Description: (§3) Purified monoclonal antibodies originally derived from scFvs selected from rabbit immune library were tested for binding towards C1-C6-Fc, VWFAD4-C6, BSA (100 ng/well) and human native VWF (Imperial College, 20 ng/well). […] Protein targets were immobilized overnight on ELISA plates, blocked and incubated with a semi-log dilution series of purified recombinant monoclonal antibodies (starting concentration 10 μg/ml), averages of duplicate values are shown. Antibody binding towards human native VWF, VWFAD4-C6 and BSA were detected with antihuman IgG-HRP or anti-human IgG-HRP and TMB staining. ELISA reactivities towards C1-C6-Fc were performed in a separate ELISA experiment and were detected with anti-human IgGκ-HRP and TMB staining.

[3] = biological target: T1, human native VWF; experiment: SPR, Biacore 8K, antibody captured on Protein A, native VWF as analyte (4.4-50 nM), single-cycle kinetics, 1:1 fit; replicate 2
Description: as §1, §2

[4] = biological target: T1, human native VWF; experiment: SPR, Biacore 8K, antibody captured on Protein A, native VWF as analyte (4.4-50 nM), single-cycle kinetics, 1:1 fit; replicate 3
Description: as §1, §2

[5] = biological target: T2, human full-length VWF (human, UniProt P04275 764-2813); experiment: SPR, Biacore T200, antibody captured on Protein A, full-length VWF as analyte, single-cycle kinetics
Description: (§4) Antibodies were captured on Protein A sensor chip. The system was purged using running buffer (10 mM HEPES pH 7.4, 300 mM NaCl, 3 mM EDTA, 0.05% P20) and a series S Protein A chip was docked in the Biacore T200. The surface was conditioned with 10 mM glycine-HCl pH 1.5 regeneration solution (3 injections). Each antibody was diluted to ˜0.8 μg/ml in running buffer to capture ˜350 RU on flow cells 2, 3 and 4 (flow cell 1 used as in-line reference cell). Single-cycle kinetic analysis of human full-length VWF binding to antibodies was performed using the following parameters:

[6] = biological target: T2, human full-length VWF; experiment: as above; remark: listed apart in the source
Description: as §4

[7] = biological target: T1, human native VWF; experiment: ELISA, native VWF coated at 20 ng/well, semi-log dilution of the mAb from 10 µg/ml, anti-human IgG-HRP/TMB; remark: listed apart in the source
Description: as §3

[8] = biological target: T2, human full-length VWF; experiment: SPR, Biacore T200, antibody captured on Protein A, full-length VWF as analyte, single-cycle kinetics; remark: listed apart in the source

B2: 1-G5 (antibody, human IgG1, V domains shown)
VH: QSLEESGGRLVTPGTPLTLTCSVSGFSLSSYDMTWVRQAPGKGLEWIGSIHATGITFYANWAKGRFTTSKTSTTVDLKMTSLTTEDTATYFCARGLVDLNMWGPGTLVTVSS
VL: DPVMTQTASSVSAAVGGTVTINCQASQSVYNNNYLSWYQQKPGQPPKLLIYDASTLASGVPSRFSGNGSGTQFTLTISGVQCDDAATYYCQGSYYSGGWDTAFGGGTKVVVK
notes: Rabbit-derived variable domains expressed as human IgG1; also called clone 1-G5
Kd [1]: 0.0549 nM | Kd [3]: 0.079 nM | Kd [4]: 0.123 nM | Kd [6]: 0.0253 nM

B3: 1-D5 (antibody, human IgG1, V domains shown)
VH: QQQLVESGGRLVTPGTPLTLTCAVSGFSLNNYIMGWVRQAPGKGLEYIGIISTGGSTYYASWAKGRFTISRTSTTMDLKMTSLTTEDTATYFCARGGSSAGAGFNIWGPGTLVTVSS
VL: DIVMTQTPSSVSAAVGDTVTIQCQASQSINSGLAWYQQKPGQPPKRLIYKASTLASGVPSRFRGSGSGTDFTLTISDLECADAATYYCQSYHYISANGATFGGGTEVVVE
notes: Rabbit-derived variable domains expressed as human IgG1; also called clone 1-D5; antibody 1-D5
Kd [1]: 0.025 nM | EC50 (read off the curve) [7]: ~6 ng/mL | Kd [3]: 0.0381 nM | Kd [4]: 0.0641 nM

B4: 1-A2 (antibody, human IgG1, V domains shown)
VH: QSVEESGGRLVPPGTPLTLTCTVSGIDLTSNAMNWVRQAPGKGLEWIGGIYGHDTSYYAAWAKGRFTISRTSTTVDLKMTRPTTDDTATYFCARGFIYFDIWGTGTLVTISS
VL: AIEMTQTPPSLSASVGETVRIRCLASEDIYSGISWYQQKPGKPPTLLIYGASNLESGVPPRFSGSGSGTDYTLTIGGVQAEDAATYYCLGGHSHSTTDLTFGAGTKVEIK
notes: Rabbit-derived variable domains cloned into a human IgG1 expression vector and expressed as monoclonal antibody; also called clone 1-A2; antibody 1-A2
Kd [1]: 0.164 nM | Kd [8]: 0.00802 nM | Kd [3]: 0.527 nM

Now from value to binder:

Kd [1]: 0.0487 nM | EC50 (read off the curve) [2]: ~8 ng/mL | Kd [3]: 0.084 nM | Kd [4]: 0.025 nM | Kd [5]: 0.0603 nM
B1: 3-H9 (antibody, human IgG1, V domains shown)
VH: B2 VH with S30N, T34S, T53I, F57Y, K63E, T68I
VL: AIKMTQTPSSVSVAVGGTVTINCQSSQSVYSNNLLSWYQQKPGQPPKLLIYDASTLESGVPSRFKGSGSGTQFTLTISGVQCEDAATYYCQGSYYSSGWYNTFGGGTEVVVE
notes: Rabbit-derived variable domains expressed as human IgG1; also called clone 3-H9; antibody 3-H9

Kd [1]: 0.123 nM | Kd [8]: 0.0153 nM | Kd [3]: 0.154 nM
B5: 4-H3 (antibody, human IgG1, V domains shown)
VH: B4 VH with V3L
VL: B4 VL with I2Y, E3D, Y30A, H92Y, H94F, T96S, T97N, D98G
notes: Rabbit-derived variable domains expressed as human IgG1; also called clone 4-H3
